Assays:
[1] = biological target: SLPI binding sites on U937 cells (human monocyte cell line; intact cells, PMA-induced cells or plasma membranes) (human); test: competition with 125I-SLPI, intact U937 cells, competitor at 8.2 nM
[2] = biological target: SLPI binding sites on HuT78 cells (human T cell line) (human); test: competition with 125I-SLPI, intact HuT78 cells, competitor at 2750 nM
[3] = biological target: SLPI binding sites on HuT78 cells (human T cell line) (human); test: 125I-SLPI saturation binding, intact HuT78 cells, *SLPI at 320 pM
[4] = biological target: SLPI binding sites on U937 cells (human monocyte cell line; intact cells, PMA-induced cells or plasma membranes) (human); test: competition with 125I-SLPI, U937 plasma membranes, competitor at 83.9 nM
[5] = biological target: SLPI binding sites on U937 cells (human monocyte cell line; intact cells, PMA-induced cells or plasma membranes) (human); test: competition with 125I-SLPI, intact U937 cells, cold SLPI at 0.25 nM
[6] = biological target: SLPI binding sites on U937 cells (human monocyte cell line; intact cells, PMA-induced cells or plasma membranes) (human); test: 125I-SLPI saturation binding, U937 cells plus PMA, *SLPI at 640 pM
[7] = biological target: SLPI binding sites on U937 cells (human monocyte cell line; intact cells, PMA-induced cells or plasma membranes) (human); test: competition with 125I-SLPI, intact U937 cells, competitor at 84 nM
[8] = biological target: SLPI binding sites on HuT78 cells (human T cell line) (human); test: 125I-SLPI saturation binding, intact HuT78 cells, *SLPI at 10,240 pM
[9] = biological target: SLPI binding sites on U937 cells (human monocyte cell line; intact cells, PMA-induced cells or plasma membranes) (human); test: 125I-SLPI saturation binding, U937 cells plus PMA, *SLPI at 80 pM
[10] = biological target: SLPI binding sites on U937 cells (human monocyte cell line; intact cells, PMA-induced cells or plasma membranes) (human); test: 125I-SLPI saturation binding, U937 cells minus PMA, *SLPI at 20,480 pM
[11] = biological target: SLPI binding sites on U937 cells (human monocyte cell line; intact cells, PMA-induced cells or plasma membranes) (human); test: 125I-SLPI saturation binding, U937 cells minus PMA, *SLPI at 10,240 pM
[12] = biological target: SLPI binding sites on HuT78 cells (human T cell line) (human); test: 125I-SLPI saturation binding, intact HuT78 cells, *SLPI at 20,480 pM
[13] = biological target: SLPI binding sites on U937 cells (human monocyte cell line; intact cells, PMA-induced cells or plasma membranes) (human); test: competition with 125I-SLPI, intact U937 cells, cold SLPI at 860 nM
[14] = biological target: SLPI binding sites on HuT78 cells (human T cell line) (human); test: 125I-SLPI saturation binding, intact HuT78 cells, *SLPI at 2560 pM
[15] = biological target: SLPI binding sites on U937 cells (human monocyte cell line; intact cells, PMA-induced cells or plasma membranes) (human); test: 125I-SLPI saturation binding, U937 cells minus PMA, *SLPI at 80 pM
[16] = biological target: SLPI binding sites on U937 cells (human monocyte cell line; intact cells, PMA-induced cells or plasma membranes) (human); test: competition with 125I-SLPI, U937 plasma membranes, competitor at 8.20 nM
[17] = biological target: SLPI binding sites on U937 cells (human monocyte cell line; intact cells, PMA-induced cells or plasma membranes) (human); test: 125I-SLPI saturation binding, intact U937 cells, *SLPI at 160 pM
[18] = biological target: SLPI binding sites on U937 cells (human monocyte cell line; intact cells, PMA-induced cells or plasma membranes) (human); test: competition with 125I-SLPI, intact U937 cells, competitor at 0.078 nM
[19] = biological target: SLPI binding sites on U937 cells (human monocyte cell line; intact cells, PMA-induced cells or plasma membranes) (human); test: competition with 125I-SLPI, intact U937 cells, competitor at 2.6 nM
[20] = biological target: SLPI binding sites on HuT78 cells (human T cell line) (human); test: competition with 125I-SLPI, intact HuT78 cells, cold SLPI at 84 nM
[21] = biological target: SLPI binding sites on HuT78 cells (human T cell line) (human); test: 125I-SLPI saturation binding, intact HuT78 cells, *SLPI at 640 pM
[22] = biological target: SLPI binding sites on U937 cells (human monocyte cell line; intact cells, PMA-induced cells or plasma membranes) (human); test: competition with 125I-SLPI, intact U937 cells, Kd by Cheng-Prusoff
[23] = biological target: SLPI binding sites on HuT78 cells (human T cell line) (human); test: competition with 125I-SLPI, intact HuT78 cells, Kd by Cheng-Prusoff
[24] = biological target: SLPI binding sites on U937 cells (human monocyte cell line; intact cells, PMA-induced cells or plasma membranes) (human); test: competition with 125I-SLPI, intact U937 cells, cold SLPI at 26 nM
[25] = biological target: SLPI binding sites on HuT78 cells (human T cell line) (human); test: competition with 125I-SLPI, intact HuT78 cells, competitor at 2.6 nM

serine leukocyte protease inhibitor (SLPI), sequence (P03973 26-132): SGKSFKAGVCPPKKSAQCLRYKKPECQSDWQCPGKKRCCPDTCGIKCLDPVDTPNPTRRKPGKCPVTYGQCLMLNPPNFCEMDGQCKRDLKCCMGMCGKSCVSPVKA

% *SLPI BOUND [1]: 22%
% *SLPI BOUND [2]: 0%
bound pM [3]: 2.53 pM
bound per free [3]: 0.0079
sites bound per cell (sites per cell) [3]: 152
specific cpm [3]: 101 cpm
CPM *SLPI BOUND [4]: 2070 cpm
% *SLPI BOUND [5]: 92%
bound pM [6]: 103 pM
bound per free [6]: 0.192
sites bound per cell (sites per cell) [6]: 6200
specific cpm [6]: 1100 cpm
% *SLPI BOUND [7]: 7%
bound pM [8]: 32.7 pM
bound per free [8]: 0.0032
sites bound per cell (sites per cell) [8]: 1970
specific cpm [8]: 1300 cpm
bound pM [9]: 32 pM
bound per free [9]: 0.67
sites bound per cell (sites per cell) [9]: 1910
specific cpm [9]: 339 cpm
bound *SLPI (pM) [10]: 915 pM
bound per free [10]: 0.047
sites bound per cell (sites per cell) [10]: 55100
specific cpm [10]: 9780 cpm
bound *SLPI (pM) [11]: 844 pM
bound per free [11]: 0.09
sites bound per cell (sites per cell) [11]: 50800
specific cpm [11]: 9020 cpm
bound pM [12]: 30.3 pM
bound per free [12]: 0.0015
sites bound per cell (sites per cell) [12]: 1820
specific cpm [12]: 1210 cpm
% *SLPI BOUND [13]: 0%
bound pM [14]: 9.98 pM
bound per free [14]: 0.0039
sites bound per cell (sites per cell) [14]: 501
specific cpm [14]: 398 cpm
bound *SLPI (pM) [15]: 37 pM
bound per free [15]: 0.86
sites bound per cell (sites per cell) [15]: 2230
specific cpm [15]: 400 cpm
CPM *SLPI BOUND [16]: 5710 cpm
bound *SLPI (pM) [17]: 32.9 pM
bound per free [17]: 0.259
sites bound per cell (sites per cell) [17]: 1980
specific cpm [17]: 1320 cpm
% *SLPI BOUND [18]: 111%
% *SLPI BOUND [19]: 46%
% *SLPI BOUND [20]: 9.3%
bound pM [21]: 2.53 pM
bound per free [21]: 0.0039
sites bound per cell (sites per cell) [21]: 152
specific cpm [21]: 101 cpm
Kd [22]: 2 nM
Kd [23]: 2 nM
% *SLPI BOUND [24]: 12%
% *SLPI BOUND [25]: 76%
Substance: serine leukocyte protease inhibitor (SLPI) (from UniProt P03973 26-132)
